Measurements: US6884600B1, “Protein phosphatase-1 catalytic subunit interactions” (Medical Research Council London, priority 1996, dated 2005)

Columns and labels:
PP1c (γ1-isoform) = PP1c (γ1-isoform) (Homo sapiens, UniProt P36873); assay: Far Western: GST-GM fusion proteins probed with digoxygenin-labelled PP1γ; type: binding; conditions: GST-fusion proteins on blot probed with digoxygenin-labelled PP1γ
Source text: GST-GM fusion proteins were electrophoresed on 10% SDS/polyacrylamide gels and stained with Coomassie blue (lanes 1-3) or, after transfer to nitrocellulose, probed with digoxygenin-labelled PP1γ (lanes 4-6) as in [9]. Lanes 1 and 4, GST-GM-(E2-D118); Lanes 2 and 5, GST-GM-(H100-P350); Lanes 3 and 6, GST. The positions of the marker proteins glycogen phosphorylase (97 kDa), bovine serum albumin (66 kDa), ovalbumin (43 kDa), carbonic anhydrase (29 kDa) and soybean trypsin inhibitor (20 kDa) are indicated.
(§1) The myosin-associated form of PP1 (PP1M) was from chicken gizzard and the glycogen-associated form of PP1 (PP1G) from rabbit skeletal muscle. The β isoform of PP1c was released from PP1G by incubation for 2 hours in 2M LiBr, then purified by gel-filtration on a 30×1 cm column of Superose 12 (Pharmacia, Milton Keynes, U.K.) in the presence of 0.5M LiBr. Glycogen protein particles from rat liver were used as the source of hepatic PP1G Digoxygenin-labelled PP1c (γ1-isoform, hereafter termed PP1) was prepared as in [9]. GL was expressed in E. coli as a glutathione-S-transferase (GST) fusion protein [7], termed GST-GL. The catalytic subunit of PP2A from bovine heart (PP2AC) was provided by Dr R. MacKintosh in this Unit. The phosphorylatable myosin light chain (MLC20) and heavy meromyosin from chicken gizzard were a gift from Dr M. Ikebe (Case Western Reserve University, Cleveland, USA). Thrombin and benzamidine-Agarose were purchased from Sigma (Poole, UK).
The amino acid sequence of rat hepatic GL is 23% identical (39% similar) to residues 1-286 of GM from human skeletal muscle. […] Fusion proteins in which GST was linked to fragments of GM were therefore tested for their ability to bind to PP1c. […] We therefore synthesised GM-(G63-T93) and examined its effect on the enzymatic properties of PP1GL, the form of PP1 associated with rat hepatic protein-glycogen particles.

PP1c [1] = target: T1, PP1c (Oryctolagus cuniculus, UniProt P62143); assay: Phosphorylase phosphatase activity of PP1c; type: biochemical, rabbit
T1 construct: from tissue; host or cells: rabbit skeletal muscle (PP1G dissociated with LiBr)
Protocol: (§2) A,B; Effects of M110-(M1-E309) (closed circles), M110-(M1-F38) (open circles) and M110-(D39-E309) (open triangles) on the MLC20 phosphatase […] and phosphorylase phosphatase (B) activities of PP1c were measured after incubating PP1c for 15 minutes at 30° C. with each fragment. The results are presented as a percentage of those obtained in experiments where the M110 fragments were omitted.
(§3) C,D; The effect of M110-(M1-A150) (open circles) and M110-(L24-Y496) (closed circles) on the MLC20 phosphatase (C) and phosphorylase phosphatase (D) activities of PP1c were measured as in A,B.
(B) The phosphorylase phosphatase activity of PP1c was assayed as in A in the presence or absence of 1 μM GM-(G63-T93) and 1.0 nM M110-(M1-E309). The results are presented (SEM for three experiments) as a percentage of the PP1c activity measured in the absence of GM-(63-T93), M110-(M1-F38) or M110-(M1-E309).
as §1
(§4) ^32P-labelled rabbit skeletal muscle phosphorylase a (containing 1.0 mol phosphate per mol subunit) was prepared by phosphorylation with phosphorylase kinase, ^32P-labelled rabbit skeletal muscle glycogen synthase (containing 1.5 mol/mol subunit in the sites 3 region) was prepared by phosphorylation with glycogen synthase kinase-3 [24]). ^32P-labelled chicken gizzard MLC20 and ^32P-labelled chicken gizzard heavy meromyosin (containing 1.0 mol phosphate per mol subunit) were prepared by phosphorylation with smooth muscle myosin light chain kinase. The dephosphorylation of phosphorylase a (10 μM), glycogen synthase (1 μM) and MLC20 (1 μM) and heavy meromyosin (1 μM) was carried out as in [24]. One unit of activity (U) was that amount which released […] of phosphate in one minute.
(§5) PP1c was isolated from the rabbit skeletal muscle PP1-GM complex as described previously (Johnson et al, 1996). Glycogen particles isolated from rat liver (Schelling el al, 1988) served as the source of PP1-GL. The dephosphorylation of glycogen phosphorylase (10 μM) and the isolated MLC20 of smooth muscle myosin (1 μM) by PP1c was carried out as described previously (Cohen et al., 1988; Alessi et al., 1992).

PP1c [2] = target: T1, PP1c; assay: MLC20 (myosin P-light chain) phosphatase activity of PP1c; type: biochemical
Protocol: as §2, §3
(A) The MLC20 phosphatase activity of PP1c was assayed after incubation for 15 minutes at 30° C. in the presence or absence of 1 μM GM-(G63-T93) and either 0.1 μM M110-(M1-F38) or 0.1 nM M110-(M1-E309).
(1-38, open circles) or M110[M1-K35] (1-35, closed circles) were incubated with PP1c for 15 min at 30° C. and reactions started with the ^32P-labelled MLC20 substrate. The results are expressed as a % of the activity determined in control incubations where the M110 peptides were omitted (100%). Similar results were obtained in three separate experiments.
as §1, §4, §5
^32P-labelled myosin P-light chains containing 1.0 mol phosphate per mol subunit was prepared by phosphorylation with smooth muscle myosin light chain kinase. The dephosphorylation of myosin P-light chain (1 μM) was carried out as in [4] and one unit of activity (U) was that amount which catalysed the release of 1 μmole of phosphate in one min. When assaying PP1M in immunoprecipitates from the myofibrillar extracts, the tubes were shaken continuously and 3 nM okadaic acid was included to inhibit any PP2A present.

myosin = target: T2, myosin (Gallus gallus, UniProt P10587); assay: Myosin binding assay (pelleting with myosin); set-up: species or system chicken; conditions: myosin 1 μM, 15 min 0° C.
T2 construct: from tissue; host or cells: chicken gizzard
Protocol: The PP1 catalytic subunit (PP1c), PP1M, or PP1M lacking the M21 subunit, PP1M(ΔM21), each at 30 nM, were incubated for 15 min at 0° C. with 1 μM myosin and centrifuged (see Methods of Example 3). […] The results shown are the average (±S.E.M.) for three separate experiments each assayed in duplicate.
(A); PP1M, M110-(M1-S477) and GST-M110-(M377-K976), each at 30 nM were incubated for 15 min at 0° C. with 1 μM myosin and centrifuged. The supernatants (S), resuspended pellets (P) and the suspension before centrifugation (T, total) were electrophoresed on 12% SDS/polyacrylamide gels, transferred to nitrocellulose and immunoblotted with antibodies raised against the PP1M holoenzyme. No protein was pelleted in the absence of myosin (not shown). The positions of the marker proteins myosin heavy chain (200 kDa), glycogen phosphorylase (97 kDa), bovine serum albumin (66 kDa), ovalbumin (43 kDa), carbonic anhydrase (29 kDa) and soybean trypsin inhibitor (20 kDa) are indicated. (B) The experiments were carried out as in (A), except that the M110 fragments and M21 subunit were used at 100 nM, the 8.5 kDa M110-(K933-I1004) fragment was electrophoresed on a 16.5% polyacrylamide gel and immunoblotting was carried out with affinity purified antibodies (see Methods). A small amount of M110-(R714-I1004) pelleted in the absence of myosin. […] No other protein was pelleted in the absence of myosin.
(A); Myosin (1 μM) was mixed with 50 μM, 20 μM or 10 μM M21 subunit to give the molar ratios M21:myosin dimer indicated. After 15 min at 0° C., the solutions were centrifuged and the supernatants (S), resuspended pellets (P) and the suspension before centrifugation (T, total) were electrophoresed on 12% SDS/polyacrylamide gels and stained with Coomassie blue. The positions of the myosin heavy chain (MHC) and the M21 subunit are indicated. The myosin light chains migrate faster than the M21 subunit and are not visible at these loadings.
Myosin binding assays. Myosin (0.5 mg/ml, 1 μM in terms of myosin heavy chains) in 10 mM Hepes pH 7.5, 50 mM KCl, 5 mM MgCl2, 0.1% (by vol) 2-mercaptoethanol, was mixed with PP1M, M21 subunit, or fragments of the M110 and M21 subunits, at the concentrations indicated in figure legends. After incubation for 15 min at 0° C., the solutions were centrifuged for 2 min at 13,000×g, the supernatants removed, and the pellets washed twice in 10 mM Hepes pH 7.5, 50 mM KCl, 5 mM MgCl2, 0.1% (by vol) 2-mercaptoethanol before resuspension in 50 mM Tris-HCl pH 7.5, 0.1 mM EGTA, 0.03% (by mass) Brij 35, 0.6 M NaCl, 0.1% (by vol) 2-mercaptoethanol. Aliquots of the supernatant, the resuspended pellet and the suspension before centrifugation were either assayed for myosin P-light chain phosphatase activity or denatured in SDS and analysed by SDS/polyacrylamide gel electrophoresis.

T1 sequence (P62143 whole entry): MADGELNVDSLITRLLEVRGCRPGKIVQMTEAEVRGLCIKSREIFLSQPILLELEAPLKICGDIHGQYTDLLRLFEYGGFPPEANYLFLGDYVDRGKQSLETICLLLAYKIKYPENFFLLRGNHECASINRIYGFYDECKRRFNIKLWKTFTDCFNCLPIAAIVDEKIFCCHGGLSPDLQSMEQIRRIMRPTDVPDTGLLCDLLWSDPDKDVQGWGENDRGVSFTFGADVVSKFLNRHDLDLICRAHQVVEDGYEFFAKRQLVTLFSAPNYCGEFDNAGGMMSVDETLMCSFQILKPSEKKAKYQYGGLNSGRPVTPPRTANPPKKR
Chain of PP1c (γ1-isoform) (P36873 whole entry, the tested form may be a part, canonical isoform): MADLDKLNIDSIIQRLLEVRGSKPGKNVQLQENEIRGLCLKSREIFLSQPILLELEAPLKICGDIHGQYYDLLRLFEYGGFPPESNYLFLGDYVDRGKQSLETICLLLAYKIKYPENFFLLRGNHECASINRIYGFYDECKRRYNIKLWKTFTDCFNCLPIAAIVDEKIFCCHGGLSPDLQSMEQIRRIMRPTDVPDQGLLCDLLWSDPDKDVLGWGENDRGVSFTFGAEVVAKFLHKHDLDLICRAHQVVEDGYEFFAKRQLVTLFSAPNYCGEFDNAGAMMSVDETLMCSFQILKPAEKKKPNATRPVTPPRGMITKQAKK
T2 sequence (P10587 whole entry): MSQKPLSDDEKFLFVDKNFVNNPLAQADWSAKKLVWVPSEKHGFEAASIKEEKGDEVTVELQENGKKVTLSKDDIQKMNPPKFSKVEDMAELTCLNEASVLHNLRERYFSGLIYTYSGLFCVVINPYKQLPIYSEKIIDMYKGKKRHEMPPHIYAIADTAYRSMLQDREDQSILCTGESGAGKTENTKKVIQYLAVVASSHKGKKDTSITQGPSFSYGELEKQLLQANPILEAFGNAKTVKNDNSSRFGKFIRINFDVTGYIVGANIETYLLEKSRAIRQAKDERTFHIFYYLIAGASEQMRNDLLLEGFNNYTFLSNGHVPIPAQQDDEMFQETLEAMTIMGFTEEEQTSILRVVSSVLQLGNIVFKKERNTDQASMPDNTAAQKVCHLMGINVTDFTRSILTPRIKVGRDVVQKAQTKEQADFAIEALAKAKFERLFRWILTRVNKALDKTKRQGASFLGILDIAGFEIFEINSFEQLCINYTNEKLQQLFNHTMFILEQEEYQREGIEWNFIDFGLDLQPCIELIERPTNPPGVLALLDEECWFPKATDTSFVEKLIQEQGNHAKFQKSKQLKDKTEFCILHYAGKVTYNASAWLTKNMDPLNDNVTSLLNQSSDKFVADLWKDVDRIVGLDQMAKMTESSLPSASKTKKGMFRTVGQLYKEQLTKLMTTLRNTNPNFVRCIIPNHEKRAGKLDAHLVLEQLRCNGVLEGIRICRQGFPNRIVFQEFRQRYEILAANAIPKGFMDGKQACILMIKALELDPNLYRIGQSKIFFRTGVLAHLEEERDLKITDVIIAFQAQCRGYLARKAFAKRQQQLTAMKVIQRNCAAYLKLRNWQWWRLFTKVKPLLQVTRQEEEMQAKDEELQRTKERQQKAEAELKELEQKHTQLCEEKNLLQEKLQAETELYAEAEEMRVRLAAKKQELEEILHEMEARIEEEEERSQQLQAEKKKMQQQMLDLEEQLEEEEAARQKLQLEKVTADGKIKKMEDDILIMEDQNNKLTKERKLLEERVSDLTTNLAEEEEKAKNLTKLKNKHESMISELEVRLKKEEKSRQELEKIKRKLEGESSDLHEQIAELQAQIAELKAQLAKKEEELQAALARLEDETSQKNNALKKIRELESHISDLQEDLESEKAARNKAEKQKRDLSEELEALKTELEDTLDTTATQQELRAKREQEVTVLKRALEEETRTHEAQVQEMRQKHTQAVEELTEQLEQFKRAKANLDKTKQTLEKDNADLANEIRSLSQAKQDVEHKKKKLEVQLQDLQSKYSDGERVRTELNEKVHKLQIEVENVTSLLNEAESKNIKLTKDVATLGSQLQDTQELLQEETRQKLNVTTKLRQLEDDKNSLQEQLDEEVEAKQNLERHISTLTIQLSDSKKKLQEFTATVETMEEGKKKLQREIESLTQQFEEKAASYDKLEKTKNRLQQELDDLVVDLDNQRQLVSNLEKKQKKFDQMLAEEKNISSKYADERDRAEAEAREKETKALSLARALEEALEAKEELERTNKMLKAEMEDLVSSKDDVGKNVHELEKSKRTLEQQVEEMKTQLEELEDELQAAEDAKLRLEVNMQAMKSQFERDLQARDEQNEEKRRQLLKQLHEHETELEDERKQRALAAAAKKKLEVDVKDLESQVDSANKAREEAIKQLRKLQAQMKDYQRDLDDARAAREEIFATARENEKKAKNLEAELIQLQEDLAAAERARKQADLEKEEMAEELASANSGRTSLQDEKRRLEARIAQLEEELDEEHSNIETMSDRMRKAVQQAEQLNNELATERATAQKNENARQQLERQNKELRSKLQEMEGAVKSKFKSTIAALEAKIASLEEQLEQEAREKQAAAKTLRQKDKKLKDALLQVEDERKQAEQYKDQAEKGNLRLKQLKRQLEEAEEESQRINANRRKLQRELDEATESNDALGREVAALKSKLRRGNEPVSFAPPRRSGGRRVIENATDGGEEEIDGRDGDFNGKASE
T2 sequence (P02612 whole entry partner): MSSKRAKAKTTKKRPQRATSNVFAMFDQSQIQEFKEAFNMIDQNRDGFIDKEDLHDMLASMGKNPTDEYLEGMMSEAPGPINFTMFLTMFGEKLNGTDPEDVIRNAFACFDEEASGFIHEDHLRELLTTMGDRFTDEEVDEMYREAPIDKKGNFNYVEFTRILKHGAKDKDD
T2 sequence (P02607 whole entry partner): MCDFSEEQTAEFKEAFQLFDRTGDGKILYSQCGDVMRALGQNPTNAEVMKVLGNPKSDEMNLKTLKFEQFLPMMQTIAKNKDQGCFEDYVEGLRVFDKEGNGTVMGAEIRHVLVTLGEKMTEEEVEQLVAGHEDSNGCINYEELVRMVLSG

B1: GST-GM-(E2-D118): GST fusion of amino acids 2-118 of human GM (protein)
chain: EPSEVPSQISKDNFLEVPNLSDSLCEDEEVTFQPGFSPQPSRRGSDSSEDIYLDTPSSGTRRVSFADSFGFNLVSVKEFDCWELPSASTTFDLGTDIFHTEEYVLAPLFDLPSSKEDQLNSS
modifications: left off: a dimerising Fc or GST
notes: GST fusion of amino acids 2-118 of human GM
interaction with PP1 in Far Western experiments (PP1c (γ1-isoform)): interacted with PP1

B2: M110-(L24-Y496): rat aorta M110 fragment, residues 24-496 (protein, UniProt Q10728 24-496, looked up, fragment)
chain: LEPPVVKRQKTKVKFDDGAVFLAACSSGDTDEVLKLLHRGADINYANVDGLTALHQACIDDNVDMVKFLVENGANINQPDNEGWIPLHAAASCGYLDIAEFLIGQGAHVGAVNSEGDTPLDIAEEEAMEELLQNEVNRQGVDIEAARKEEERIMLRDARQWLNSGHISDVRHAKSGGTALHVAAAKGYTEVLKLLIQAGYDVNIKDYDGWTPLHAAAHWGKEEACRILVDNLCDMETVNKVGQTAFDVADEDILGYLEELQKKQNLLHSEKRDKKSPLIESTANMENNQPQKTFKNKETLIIEPEKNASRIESLEQEKADEEEEGKKDESSCSSEEDEEDDSESEAETDKTKPMASVTNAHTASTQAAPAAVTTPTLSSNQGTPTSPVKKFPTSTTKISPKEEERKDESPASWRLGLRKTGSYGALAEITASKEAQKEKDTAGVIRSASSPRLSSSLDNKEKEKDNKGTRLAY
effect on the phosphorylase phosphatase activity of PP1c (PP1c [1]): inhibited the phosphorylase phosphatase activity of PP1c in a similar manner to M110-(M1-A150) | effect on the MLC20 phosphatase activity of PP1c (PP1c [2]): less effective than M110-(M1-A150) or M110-(M1-E309) in stimulating the MLC20 phosphatase activity of PP1c

B3: GST-GM-(E2-P243): GST fusion of amino acids 2-243 of human GM (protein)
chain: EPSEVPSQISKDNFLEVPNLSDSLCEDEEVTFQPGFSPQPSRRGSDSSEDIYLDTPSSGTRRVSFADSFGFNLVSVKEFDCWELPSASTTFDLGTDIFHTEEYVLAPLFDLPSSKEDLMQQLQIQKAILESTESLLGSTSIKGIIRVLNVSFEKLVYVRMSLDDWQTHYDILAEYVPNSCDGETDQFSFKIVLVPPYQKDGSKVEFCIRYETSVGTFWSNNNGTNYTFICQKKEQEPEPVKP
modifications: left off: a dimerising Fc or GST
notes: GST fusion of amino acids 2-243 of human GM
interaction with PP1 in Far Western experiments (PP1c (γ1-isoform)): interacted with PP1

B4: GST-M110-(M1-S477): GST fusion of rat aorta M110 residues 1-477 (protein)
chain: MKMADAKQKRNEQLKRWIGSETDLEPPVVKRQKTKVKFDDGAVFLAACSSGDTDEVLKLLHRGADINYANVDGLTALHQACIDDNVDMVKFLVENGANINQPDNEGWIPLHAAASCGYLDIAEFLIGQGAHVGAVNSEGDTPLDIAEEEAMEELLQNEVNRQGVDIEAARKEEERIMLRDARQWLNSGHISDVRHAKSGGTALHVAAAKGYTEVLKLLIQAGYDVNIKDYDGWTPLHAAAHWGKEEACRILVDNLCDMETVNKVGQTAFDVADEDILGYLEELQKKQNLLHSEKRDKKSPLIESTANMENNQPQKTFKNKETLIIEPEKNASRIESLEQEKADEEEEGKKDESSCSSEEDEEDDSESEAETDKTKPMASVTNAHTASTQAAPAAVTTPTLSSNQGTPTSPVKKFPTSTTKISPKEEERKDESPASWRLGLRKTGSYGALAEITASKEAQKEKDTAGVIRSASSPRLSSAANSISSLIHRD
modifications: left off: a dimerising Fc or GST
binding to myosin (myosin): neither GST-M110-(M1-S477) nor GST-M110-(M1-E309) bound to myosin | effect on the phosphorylase phosphatase activity of PP1c (PP1c [1]): inhibited the dephosphorylation of glycogen phosphorylase | effect on the MLC20 phosphatase activity of PP1c (PP1c [2]): stimulated the PP1c-catalysed dephosphorylation of the myosin P-light chain

B5: M110-(M1-A150): rat aorta M110 fragment, residues 1-150 (protein, UniProt Q10728 1-150, looked up, fragment)
chain: MKMADAKQKRNEQLKRWIGSETDLEPPVVKRQKTKVKFDDGAVFLAACSSGDTDEVLKLLHRGADINYANVDGLTALHQACIDDNVDMVKFLVENGANINQPDNEGWIPLHAAASCGYLDIAEFLIGQGAHVGAVNSEGDTPLDIAEEEA
effect on the phosphorylase phosphatase activity of PP1c (PP1c [1]): modified the specificity of PP1 similarly | concentration needed to modulate the specificity of PP1c compared to thrombin-cleaved M110-(M1-E309) (PP1c [2]): 10 fold higher | effect on the MLC20 phosphatase activity of PP1c (PP1c [2]): modified the specificity of PP1 similarly
